According to the supplement of paper PMC5998384:

Experiments:
[1] = tested on: HeLa Kyoto; experiment: solubility in G1/S (NP-40 vs SDS abundance) (log2 ratio); higher = more soluble; settings: cell cycle stage: G1/S
[2] = tested on: HeLa Kyoto; experiment: melting temperature (median over replicates), in situ; higher = more thermally stable
[3] = tested on: HeLa Kyoto; experiment: solubility change mitosis vs G1/S (difference of NP-40 vs SDS log2 ratios) (log2 ratio difference); higher = more soluble in mitosis
[4] = tested on: HeLa Kyoto; experiment: thermal stability score vs G1/S (z-score of summed log2 fold changes over temperatures); higher = more thermally stable than in G1/S
[5] = cell cycle stage: early G1 (4.5 h after nocodazole release)
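Throughout, for melting temperature (median over replicates), in situ: HeLa Kyoto cells synchronized by double thymidine or nocodazole block, proteins quantified by TMT10plex mass spectrometry, three independent biological replicates.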
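Throughout, for solubility change mitosis vs G1/S (difference of NP-40 vs SDS log2 ratios): synchronized HeLa Kyoto cells (double thymidine block for G1/S, nocodazole release for mitosis), protein amounts in NP-40 versus SDS lysates quantified by mass spectrometry, three biological replicates.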
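Throughout, for solubility in G1/S (NP-40 vs SDS abundance): HeLa Kyoto cells arrested at G1/S by double thymidine block, proteins quantified by TMT10plex mass spectrometry in mild NP-40 versus SDS extracts, three biological replicates.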
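Throughout, for thermal stability score vs G1/S (z-score of summed log2 fold changes over temperatures): synchronized HeLa Kyoto cells, proteins quantified by TMT10plex mass spectrometry, three biological replicates, mitosis taken 0.5 h after nocodazole release, G1/S directly after double thymidine block.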

Chain of CIAO1 (chain, as listed by the source): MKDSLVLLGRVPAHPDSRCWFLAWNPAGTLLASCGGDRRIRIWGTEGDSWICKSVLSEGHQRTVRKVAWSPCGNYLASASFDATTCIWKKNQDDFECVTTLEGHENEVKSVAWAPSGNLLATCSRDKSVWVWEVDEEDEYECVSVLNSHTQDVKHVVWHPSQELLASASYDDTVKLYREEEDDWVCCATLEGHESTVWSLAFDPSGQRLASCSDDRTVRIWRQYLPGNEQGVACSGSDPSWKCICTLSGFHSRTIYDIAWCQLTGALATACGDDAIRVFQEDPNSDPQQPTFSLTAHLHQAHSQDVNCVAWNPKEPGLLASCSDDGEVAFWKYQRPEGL

Substance	solubility in G1/S (log2) [1]	melting temperature ([2]; cell cycle stage: G1/S)	melting temperature ([2]; cell cycle stage: mitosis)	solubility change mitosis (log2) [3]	thermal stability score [4, 5]	thermal stability score ([4]; cell cycle stage: mitosis)
MITSELPVLQDSTNETTAHSDAGSELEETEVKGKRKRGRPGRPPSTNKKPRKSPGEKSRIEAGIRGAGRGRANGHPQQNGEGEPVTLFEVVKLGKSAMQSVVDDWIESYKQDRDIALLDLINFFIQCSGCRGTVRIEMFRNMQNAEIIRKMTEEFDEDSGDYPLTMPGPQWKKFRSNFCEFIGVLIRQCQYSIIYDEYMMDTVISLLTGLSDSQVRAFRHTSTLAAMKLMTALVNVALNLSIHQDNTQRQYEAERNKMIGKRANERLELLLQKRKELQENQDEIENMMNSIFKGIFVHRYRDAIAEIRAICIEEIGVWMKMYSDAFLNDSYLKYVGWTLHDRQGEVRLKCLKALQSLYTNRELFPKLELFTNRFKDRIVSMTLDKEYDVAVEAIRLVTLILHGSEEALSNEDCENVYHLVYSAHRPVAVAAGEFLHKKLFSRHDPQAEEALAKRRGRNSPNGNLIRMLVLFFLESELHEHAAYLVDSLWESSQELLKDWECMTELLLEEPVQGEEAMSDRQESALIELMVCTIRQAAEAHPPVGRGTGKRVLTAKERKTQIDDRNKLTEHFIITLPMLLSKYSADAEKVANLLQIPQYFDLEIYSTGRMEKHLDALLKQIKFVVEKHVESDVLEACSKTYSILCSEEYTIQNRVDIARSQLIDEFVDRFNHSVEDLLQEGEEADDDDIYNVLSTLKRLTSFHNAHDLTKWDLFGNCYRLLKTGIEHGAMPEQIVVQALQCSHYSILWQLVKITDGSPSKEDLLVLRKTVKSFLAVCQQCLSNVNTPVKEQAFMLLCDLLMIFSHQLMTGGREGLQPLVFNPDTGLQSELLSFVMDHVFIDQDEENQSMEGDEEDEANKIEALHKRRNLLAAFSKLIIYDIVDMHAAADIFKHYMKYYNDYGDIIKETLSKTRQIDKIQCAKTLILSLQQLFNELVQEQGPNLDRTSAHVSGIKELARRFALTFGLDQIKTREAVATLHKDGIEFAFKYQNQKGQEYPPPNLAFLEVLSEFSSKLLRQDKKTVHSYLEKFLTEQMMERREDVWLPLISYRNSLVTGGEDDRMSVNSGSSSSKTSSVRNKKGRPPLHKKRVEDESLDNTWLNRTDTMIQTPGPLPAPQLTSTVLRENSRPMGDQIQEPESEHGSEPDFLHNPQMQISWLGQPKLEDLNRKDRTGMNYMKVRTGVRHAVRGLMEEDAEPIFEDVMMSSRSQLEDMNEEFEDTMVIDLPPSRNRRERAELRPDFFDSAAIIEDDSGFGMPMF [STAG1]	-0.226	52 °C	50.6 °C	0.0363	-0.0959	-1.71
MAQSRDGGNPFAEPSELDNPFQDPAVIQHRPSRQYATLDVYNPFETREPPPAYEPPAPAPLPPPSAPSLQPSRKLSPTEPKNYGSYSTQASAAAATAELLKKQEELNRKAEELDRRERELQHAALGGTATRQNNWPPLPSFCPVQPCFFQDISMEIPQEFQKTVSTMYYLWMCSTLALLLNFLACLASFCVETNNGAGFGLSILWVLLFTPCSFVCWYRPMYKAFRSDSSFNFFVFFFIFFVQDVLFVLQAIGIPGWGFSGWISALVVPKGNTAVSVLMLLVALLFTGIAVLGIVMLKRIHSLYRRTGASFQKAQQEFAAGVFSNPAVRTAAANAAAGAAENAFRAP [SCAMP3]	0.19	58.2 °C	57.8 °C	-0.173	-1.12	0.091
MEGISNFKTPSKLSEKKKSVLCSTPTINIPASPFMQKLGFGTGVNVYLMKRSPRGLSHSPWAVKKINPICNDHYRSVYQKRLMDEAKILKSLHHPNIVGYRAFTEANDGSLCLAMEYGGEKSLNDLIEERYKASQDPFPAAIILKVALNMARGLKYLHQEKKLLHGDIKSSNVVIKGDFETIKICDVGVSLPLDENMTVTDPEACYIGTEPWKPKEAVEENGVITDKADIFAFGLTLWEMMTLSIPHINLSNDDDDEDKTFDESDFDDEAYYAALGTRPPINMEELDESYQKVIELFSVCTNEDPKDRPSAAHIVEALETDV [PBK]	0.0996	47.7 °C	47.6 °C	0.0797	1.05	3.4
MEKTCIDALPLTMNSSEKQETVCIFGTGDFGRSLGLKMLQCGYSVVFGSRNPQKTTLLPSGAEVLSYSEAAKKSGIIIIAIHREHYDFLTELTEVLNGKILVDISNNLKINQYPESNAEYLAHLVPGAHVVKAFNTISAWALQSGALDASRQVFVCGNDSKAKQRVMDIVRNLGLTPMDQGSLMAAKEIEKYPLQLFPMWRFPFYLSAVLCVFLFFYCVIRDVIYPYVYEKKDNTFRMAISIPNRIFPITALTLLALVYLPGVIAAILQLYRGTKYRRFPDWLDHWMLCRKQLGLVALGFAFLHVLYTLVIPIRYYVRWRLGNLTVTQAILKKENPFSTSSAWLSDSYVALGILGFFLFVLLGITSLPSVSNAVNWREFRFVQSKLGYLTLILCTAHTLVYGGKRFLSPSNLRWYLPAAYVLGLIIPCTVLVIKFVLIMPCVDNTLTRIRQGWERNSKH [STEAP4]	-0.0287	60.3 °C	57.7 °C	-0.115	-2.95	-3.54
MKSNPAIQAAIDLTAGAAGGTACVLTGQPFDTMKVKMQTFPDLYRGLTDCCLKTYSQVGFRGFYKGTSPALIANIAENSVLFMCYGFCQQVVRKVAGLDKQAKLSDLQNAAAGSFASAFAALVLCPTELVKCRLQTMYEMETSGKIAKSQNTVWSVIKSILRKDGPLGFYHGLSSTLLREVPGYFFFFGGYELSRSFFASGRSKDELGPVPLMLSGGVGGICLWLAVYPVDCIKSRIQVLSMSGKQAGFIRTFINVVKNEGITALYSGLKPTMIRAFPANGALFLAYEYSRKLMMNQLEAY [SLC25A15]	0.00397	58 °C	56.6 °C	-0.0497	-2.21	-1.66
MSSSPWEPATLRRVFVVGVGMTKFVKPGAENSRDYPDLAEEAGKKALADAQIPYSAVDQACVGYVFGDSTCGQRAIYHSLGMTGIPIINVNNNCATGSTALFMARQLIQGGVAECVLALGFEKMSKGSLGIKFSDRTIPTDKHVDLLINKYGLSAHPVAPQMFGYAGKEHMEKYGTKIEHFAKIGWKNHKHSVNNPYSQFQDEYSLDEVMASKEVFDFLTILQCCPTSDGAAAAILASEAFVQKYGLQSKAVEILAQEMMTDLPSSFEEKSIIKMVGFDMSKEAARKCYEKSGLTPNDIDVIELHDCFSTNELLTYEALGLCPEGQGATLVDRGDNTYGGKWVINPSGGLISKGHPLGATGLAQCAELCWQLRGEAGKRQVPGAKVALQHNLGIGGAVVVTLYKMGFPEAASSFRTHQIEAVPTSSASDGFKANLVFKEIEKKLEEEGEQFVKKIGGIFAFKVKDGPGGKEATWVVDVKNGKGSVLPNSDKKADCTITMADSDFLALMTGKMNPQSAFFQGKLKITGNMGLAMKLQNLQLQPGNAKL [SCP2]	0.587	54.5 °C	54.4 °C	0.135	-1.44	-2.06
CIAO1	-0.222	52.5 °C	52.9 °C	-0.176	-0.588	-2.26
MAENSVLTSTTGRTSLADSSIFDSKVTEISKENLLIGSTSYVEEEMPQIETRVILVQEAGKQEELIKALKTIKIMEVPVIKIKESCPGKSDEKLIKSVINMDIKVGFVKMESVEEFEGLDSPEFENVFVVTDFQDSVFNDLYKADCRVIGPPVVLNCSQKGEPLPFSCRPLYCTSMMNLVLCFTGFRKKEELVRLVTLVHHMGGVIRKDFNSKVTHLVANCTQGEKFRVAVSLGTPIMKPEWIYKAWERRNEQDFYAAVDDFRNEFKVPPFQDCILSFLGFSDEEKTNMEEMTEMQGGKYLPLGDERCTHLVVEENIVKDLPFEPSKKLYVVKQEWFWGSIQMDARAGETMYLYEKANTPELKKSVSMLSLNTPNSNRKRRRLKETLAQLSRETDVSPFPPRKRPSAEHSLSIGSLLDISNTPESSINYGDTPKSCTKSSKSSTPVPSKQSARWQVAKELYQTESNYVNILATIIQLFQVPLEEEGQRGGPILAPEEIKTIFGSIPDIFDVHTKIKDDLEDLIVNWDESKSIGDIFLKYSKDLVKTYPPFVNFFEMSKETIIKCEKQKPRFHAFLKINQAKPECGRQSLVELLIRPVQRLPSVALLLNDLKKHTADENPDKSTLEKAIGSLKEVMTHINEDKRKTEAQKQIFDVVYEVDGCPANLLSSHRSLVQRVETISLGEHPCDRGEQVTLFLFNDCLEIARKRHKVIGTFRSPHGQTRPPASLKHIHLMPLSQIKKVLDIRETEDCHNAFALLVRPPTEQANVLLSFQMTSDELPKENWLKMLCRHVANTICKADAENLIYTADPESFEVNTKDMDSTLSRASRAIKKTSKKVTRAFSFSKTPKRALRRALMTSHGSVEGRSPSSNDKHVMSRLSSTSSLAGIPSPSLVSLPSFFERRSHTLSRSTTHLI [ECT2]	-0.347	46.9 °C	49.4 °C	0.255	0.718	0.962
